Measurements published in the Human Domainome abundance scans (Beltran et al. 2025).
± gives the uncertainty stated by the source.

B1: POU domain, class 4, transcription factor 1, residues 266 to 347; numbered along this chain, Q01851 (parent)
chain: RELEAFAERFKQRRIKLGVTQADVGSALANLKIPGVGSLSQSTICRFESLTLSHNNMIALKPILQAWLEEAEGAQREKMNKP

Variants of: B1
Experiment: abundance fitness (aPCA) (normalised: wild type 0, dead -1); higher = more abundant; growth selection in yeast, the domain comes from the species named
Settings: Homo sapiens

Abundance fitness of substitutions, site by site:
A27: M -0.175 ± 0.11 | W -0.088 ± 0.04 | F -0.284 ± 0.16 | K -0.058 ± 0.062 | C 0.01 ± 0.076 | P -1.23 ± 0.27 | E -0.035 ± 0.049 | H -0.07 ± 0.12 | N -0.071 ± 0.12 | I -0.245 ± 0.17 | T -0.069 ± 0.07 | D -0.043 ± 0.081 | L -0.288 ± 0.06 | S -0.023 ± 0.058 | V -0.16 ± 0.04 | G -0.153 ± 0.038 | Y -0.041 ± 0.19 | R -0.081 ± 0.036 | Q -0.046 ± 0.058
L39: I 0.042 ± 0.13 | M 0.01 ± 0.059 | F -0.211 ± 0.16 | V 0.001 ± 0.037 | P -0.03 ± 0.072 | C -0.096 ± 0.071 | T -0.138 ± 0.085 | Q -0.368 ± 0.085 | Y -0.277 ± 0.11 | D -0.231 ± 0.09 | H -0.113 ± 0.26 | R -0.487 ± 0.044 | K -0.409 ± 0.08 | W -0.169 ± 0.046 | S -0.33 ± 0.064
C45: G -0.037 ± 0.031 | R 0.056 ± 0.04 | I -0.001 ± 0.09 | M 0.03 ± 0.08 | P -0.18 ± 0.075 | L -0.073 ± 0.05 | S 0.079 ± 0.047 | N -0.084 ± 0.17 | E 0.06 ± 0.046 | F -0.108 ± 0.097 | T 0.11 ± 0.068 | A 0.057 ± 0.043 | W -0.076 ± 0.048 | D -0.139 ± 0.09 | K 0.035 ± 0.058 | H 0.089 ± 0.12 | Y -0.037 ± 0.1
I33: C -0.005 ± 0.039 | N -0.219 ± 0.052 | D -0.262 ± 0.054 | Q -0.295 ± 0.04 | M -0.056 ± 0.036 | E -0.22 ± 0.033 | L 0.024 ± 0.028 | S -0.23 ± 0.034 | W -0.114 ± 0.03 | F -0.091 ± 0.048 | A -0.139 ± 0.03 | R -0.217 ± 0.026 | G -0.282 ± 0.025 | V 0.05 ± 0.027 | T -0.145 ± 0.039 | Y -0.21 ± 0.053 | K -0.203 ± 0.042 | H -0.147 ± 0.06
S42: Q -0.113 ± 0.065 | I -0.034 ± 0.093 | P -0.198 ± 0.083 | M -0.042 ± 0.073 | R -0.006 ± 0.037 | F -0.199 ± 0.098 | K 0.093 ± 0.065 | H -0.152 ± 0.13 | E 0.004 ± 0.045 | C -0.071 ± 0.055 | W -0.18 ± 0.051 | N 0.022 ± 0.082 | L -0.107 ± 0.045 | T 0.029 ± 0.082 | Y -0.185 ± 0.22 | A 0.012 ± 0.05
N30: H 0.054 ± 0.15 | R -0.063 ± 0.054 | L -0.084 ± 0.088 | Q 0.026 ± 0.071 | E -0.043 ± 0.072 | Y 0.033 ± 0.34 | K 0.113 ± 0.088 | F 0.037 ± 0.13 | W -0.144 ± 0.064 | P 0.06 ± 0.1 | C -0.337 ± 0.17 | A 0.028 ± 0.059 | T -0.046 ± 0.077 | M -0.104 ± 0.09 | I 0.054 ± 0.13 | V -0.233 ± 0.061 | G -0.009 ± 0.041 | S 0.091 ± 0.08
V36: T 0.24 ± 0.15 | L 0.003 ± 0.12 | C -0.225 ± 0.18 | E -0.125 ± 0.086 | G -0.142 ± 0.11 | I 0.013 ± 0.13 | S -0.096 ± 0.24 | R -0.214 ± 0.062 | K -0.138 ± 0.14 | M -0.189 ± 0.22 | D -0.463 ± 0.42 | N -0.327 ± 0.19 | Q -0.252 ± 0.17 | Y -0.257 ± 0.38
S40: K -0.079 ± 0.06 | I -0.202 ± 0.17 | L -0.238 ± 0.052 | G -0.058 ± 0.035 | D 0.042 ± 0.099 | P -0.15 ± 0.066 | V -0.331 ± 0.055 | F -0.263 ± 0.11 | R -0.155 ± 0.041 | M -0.359 ± 0.096 | H -0.159 ± 0.16 | W -0.369 ± 0.076 | A -0.129 ± 0.053 | N -0.05 ± 0.1 | E -0.063 ± 0.051 | Q -0.072 ± 0.075 | Y -0.307 ± 0.24 | C -0.017 ± 0.057
Q41: M -0.074 ± 0.064 | N -0.137 ± 0.13 | G 0.003 ± 0.034 | I 0.074 ± 0.14 | W -0.074 ± 0.051 | K 0 ± 0.066 | E 0.051 ± 0.039 | A 0.053 ± 0.044 | T -0.055 ± 0.062 | V -0.054 ± 0.04 | F 0.084 ± 0.095 | D 0.048 ± 0.084 | H 0.149 ± 0.11 | P 0.104 ± 0.091 | Y -0.194 ± 0.12
I44: L -0.153 ± 0.058 | Y -1.01 ± 0.42 | V 0.029 ± 0.044 | N -0.516 ± 0.23 | W -0.827 ± 0.12 | D -0.957 ± 0.48 | P -0.864 ± 0.22 | K -1.04 ± 0.24 | F -0.726 ± 0.2 | T -0.751 ± 0.15 | A -1.18 ± 0.21 | Q -0.989 ± 0.34 | S -0.68 ± 0.12 | E -0.814 ± 0.12 | G -1 ± 0.093 | R -0.999 ± 0.12 | M -0.437 ± 0.086
A29: P -0.184 ± 0.16 | R 0.083 ± 0.087 | V 0.088 ± 0.35 | E 0.036 ± 0.11 | C 0.128 ± 0.36 | K 0.02 ± 0.14 | I -0.019 ± 0.13 | L -0.092 ± 0.13 | W -0.605 ± 0.5 | G 0.132 ± 0.1
T43: E -0.187 ± 0.072 | K -0.286 ± 0.15 | M 0.037 ± 0.076 | N -0.199 ± 0.26 | S -0.109 ± 0.061 | H 0.063 ± 0.12 | Q -0.113 ± 0.11 | D -0.079 ± 0.075 | W -0.131 ± 0.068 | A -0.044 ± 0.051 | L 0.053 ± 0.056 | Y -0.238 ± 0.21 | P -0.606 ± 0.14 | C -0.101 ± 0.072 | R -0.483 ± 0.06 | F -0.587 ± 0.3 | V -0.031 ± 0.045
G35: F 0.122 ± 0.37 | S -0.29 ± 0.23 | A -0.397 ± 0.26 | W -0.326 ± 0.28 | M -0.175 ± 0.22 | T 0.07 ± 0.19 | I 0.268 ± 0.49 | R -0.056 ± 0.12 | D -0.142 ± 0.24 | L -0.303 ± 0.19
S38: C -0.222 ± 0.16 | H 0.047 ± 0.38 | P -0.112 ± 0.14 | E 0.016 ± 0.083 | F 0.147 ± 0.18 | W -0.095 ± 0.14 | L -0.11 ± 0.11 | V 0.05 ± 0.2 | G -0.203 ± 0.13 | A -0.18 ± 0.27 | R 0.048 ± 0.096
E48: K -0.823 ± 0.091 | A -1.1 ± 0.094 | D -1 ± 0.09 | I -1.28 ± 0.17 | H -1.12 ± 0.12 | C -1.27 ± 0.18
L31: M 0.003 ± 0.035 | K 0.038 ± 0.039 | S -0.066 ± 0.031 | T 0.051 ± 0.035 | R -0.005 ± 0.024 | I -0.028 ± 0.052 | C -0.057 ± 0.037 | G -0.223 ± 0.024 | A -0.059 ± 0.029 | N -0.168 ± 0.061 | V -0.006 ± 0.025 | D -0.152 ± 0.046 | Q -0.04 ± 0.038 | P -0.26 ± 0.045 | H -0.014 ± 0.058
R46: N 0.047 ± 0.2 | G -0.038 ± 0.038 | K 0.005 ± 0.089 | Q 0.042 ± 0.07 | P -0.576 ± 0.18 | H -0.203 ± 0.17 | L -0.176 ± 0.05 | V -0.503 ± 0.071 | Y -0.307 ± 0.17 | E 0.055 ± 0.061 | W -0.391 ± 0.067 | A 0.094 ± 0.047 | D 0.014 ± 0.11 | C -0.117 ± 0.1 | I -0.971 ± 0.33 | M 0.128 ± 0.084 | S -0.009 ± 0.059
S26: V -0.049 ± 0.044 | Y 0.126 ± 0.1 | W 0.024 ± 0.055
G37: I -0.116 ± 0.063 | W -0.328 ± 0.036 | A -0.045 ± 0.028 | Q -0.121 ± 0.042 | E 0.015 ± 0.032 | H -0.05 ± 0.066 | V -0.093 ± 0.028 | N 0.035 ± 0.079 | C -0.058 ± 0.047 | L -0.121 ± 0.03 | Y -0.054 ± 0.053 | D -0.092 ± 0.052 | T -0.076 ± 0.039 | P -0.016 ± 0.04 | F -0.149 ± 0.045 | R -0.115 ± 0.025 | M -0.134 ± 0.037 | K -0.074 ± 0.041 | S -0.047 ± 0.032
F47: Q -1 ± 0.34 | C -0.969 ± 0.28 | E -0.819 ± 0.15 | P -0.717 ± 0.19 | Y -0.272 ± 0.12 | R -0.934 ± 0.12 | I -0.917 ± 0.28 | T -0.822 ± 0.3 | V -0.706 ± 0.095 | S -0.717 ± 0.14 | L -0.145 ± 0.063 | A -1.03 ± 0.18
L28: M -0.09 ± 0.037 | E -0.782 ± 0.048 | Q -0.628 ± 0.052 | C -0.042 ± 0.039 | H -0.332 ± 0.061 | S -0.639 ± 0.043 | T -0.312 ± 0.042 | F -0.129 ± 0.045 | D -0.624 ± 0.065 | A -0.422 ± 0.032 | W -0.555 ± 0.033 | K -0.601 ± 0.047 | V -0.074 ± 0.025 | Y -0.439 ± 0.066 | N -0.459 ± 0.071
P34: L -0.186 ± 0.036 | A 0 ± 0.029 | F -0.097 ± 0.065 | H -0.167 ± 0.063 | I -0.197 ± 0.066 | T -0.011 ± 0.039 | M -0.163 ± 0.041 | K -0.065 ± 0.043 | E 0.027 ± 0.033 | G -0.088 ± 0.024 | Q -0.027 ± 0.039 | W -0.322 ± 0.041 | N -0.133 ± 0.063 | Y -0.387 ± 0.082
K32: F 0.031 ± 0.26 | W -0.176 ± 0.071 | C -0.116 ± 0.094 | V -0.009 ± 0.059 | T 0.025 ± 0.076 | E 0.016 ± 0.13 | A -0.003 ± 0.078 | L -0.105 ± 0.064 | R -0.058 ± 0.054 | S 0.106 ± 0.096 | P -0.204 ± 0.13 | Q -0.022 ± 0.11 | M 0.018 ± 0.089 | Y -0.281 ± 0.14 | I -0.165 ± 0.21 | N -0.076 ± 0.27 | D 0.022 ± 0.17 | G -0.101 ± 0.054
